Patent US20050287638A1

Molecular target: recombinant 190 kDa hHARE expressed in Flp-In 293 cells (human)

An endocytosis of ^125I-HA by 190hHARE Flp-In 293 cell lines at 37° C. (% of the control value) of 103 was found for “mouse IgG (polyclonal serum or antibody)” in this work.
